Laboratory results taken from US7597905.

Columns and labels:
[1] = molecular target: HBsAg (G145R) particles (hepatitis B virus); assay: Auszyme II EIA kit, S-antigenicity of purified particles
[2] = molecular target: HBsAg particles (hepatitis B virus surface antigen L protein particles expressed in recombinant yeast carrying pGLDLIIP39-RcT) (hepatitis B virus); assay: as above

Auszyme II EIA kit (Dainabot Co. Ltd.) (antibody)
S-antigenicity [1]: 0.2
S-antigenicity [2]: 1
